In patent US20090175847A1:

Columns and labels:
[1] = molecular target: Aβ(1-42) fibrils (human) (UniProt P05067); experiment: co-pelleting with Aβ(1-42) fibrils (20 h, 37 °C), SDS-PAGE, densitometry of the antibody heavy chain in pellet and supernatant
[2] = molecular target: Aβ(1-42) monomer (human); experiment: dot blot densitometry; antigen: Aβ(1-42) monomer, 0.1% NaOH
[3] = molecular target: Aβ(1-42) monomer (human); experiment: dot blot densitometry; antigen: Aβ(1-42) monomer, 0.1% NH4OH
[4] = molecular target: Aβ(1-42) globulomer (human) (UniProt P05067); experiment: dot blot densitometry; antigen: Aβ(1-42) globulomer
Chain of Aβ(1-42) globulomer (human) (P05067 672-713 limits assumed): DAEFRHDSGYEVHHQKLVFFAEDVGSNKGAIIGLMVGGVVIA

Chain of Aβ(1-42) fibrils (human) (P05067 672-713 limits assumed): as above
Chain of Aβ(1-42) monomer (human) (peptide, as listed by the source): as the sequence (P05067 672-713 limits assumed) above

Row | antibody bound to fibrils [%] [1] [%] | relation between recognition of Aβ(20-42) globulomer and the respective Aβ form [2] | relation between recognition of Aβ(20-42) globulomer and the respective Aβ form [3] | relation between recognition of Aβ(20-42) globulomer and the respective Aβ form [4] | Substance
1 | 9 | – | – | – | IgG2a antibody isotype control made against KLH (Keyhole Limpet Hemocyanin)
2 | 91 | 1 | 1 | 0.02 | mouse monoclonal antibody 6E10 (Signet No 9320)
